In experiment [1] the target is T1, CD25 protein (Sino Biological, 10165-H08H) (UniProt P01589 22-213).
T1 construct: Bought recombinant protein; It speaks elsewhere of human CD25; also called antigen CD25; IL-2Rα
T1 sequence (looked up): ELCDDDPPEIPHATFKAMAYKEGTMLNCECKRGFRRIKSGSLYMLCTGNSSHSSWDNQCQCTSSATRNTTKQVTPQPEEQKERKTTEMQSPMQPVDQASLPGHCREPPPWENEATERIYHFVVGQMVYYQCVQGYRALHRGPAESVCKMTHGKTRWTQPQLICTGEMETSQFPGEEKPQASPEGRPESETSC
Description: SPR (BIAcore 8K); antibody captured by anti-human IgG Fc, CD25 protein as analyte, 1:1 model. Here is the method: Antibody binding kinetics uses BIAcore8K instrument based on surface plasmon resonance (SRP) technology to measure. Anti-human IgG antibody amino was coupled to a CMS biosensor chip by the GE anti Human IgG Fc amino coupling kit (GE, cat # BR-1008-39) to obtain approximately 1000 response units (RU). For kinetic measurements, the CD25 protein (Sino Biological, 10165-H08H) was diluted 2-fold continuously with HBS-EP+1×(GE, BR-1008-26) buffer, starting at 50 nM, being diluted 2-fold for 4 concentration gradients and setting 0 concentration. The antibody to be detected: 2 μg/ml, sample injection time 70 s, flow rate 5 μL/min, stable for 5 s; CD25 protein: binding for 60 s, flow rate 30 μL/min, dissociation for 450 s; regeneration: regeneration was performed for 30 s with 3M MgCl₂ buffer, Startup 3 times. The association constant (ka) and dissociation constant (kd) were calculated using a simple one-to-one Languir binding model (BIAcore Evaluation Software version 3.2), and the equilibrium dissociation constant (KD) was calculated by the ratio kd/ka.
A general note: Surface plasmon resonance follows binding to a sensor surface in real time, without labels.

Experiment [2] deals with T1, CD25 protein (Sino Biological, …). In words: ELISA; CD25 protein coated in a dilution series, antibody at one fixed concentration, anti-human IgG/HRP. The source says: (§1) The results are shown in FIG. 2A to FIG. 2E and Table 2 to Table 6.
On the technique in general: ELISA stands for enzyme-linked immunosorbent assay.

Experiment [3] deals with T2, CD25 on cells (SU-DHL-1 target cells; PBMC) (UniProt P01589 22-272, limits assumed).
T2 sequence (looked up): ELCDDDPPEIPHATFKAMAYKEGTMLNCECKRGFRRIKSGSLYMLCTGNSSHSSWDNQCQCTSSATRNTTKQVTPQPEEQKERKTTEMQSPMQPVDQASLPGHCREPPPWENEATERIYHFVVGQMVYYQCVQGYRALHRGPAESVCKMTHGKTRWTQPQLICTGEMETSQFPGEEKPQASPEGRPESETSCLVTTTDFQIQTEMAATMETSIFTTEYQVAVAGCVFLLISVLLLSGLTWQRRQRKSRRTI
Description: cell-based or functional assay.

In experiment [4] the target is T2, CD25 on cells (SU-DHL-1 target cells; …). Description: cell-based or functional assay. The source holds these as a separate data set.
Experiment [5] concerns the target T1, CD25 protein (Sino Biological, …). Description: ELISA; CD25 protein coated in a dilution series, antibody at one fixed concentration, anti-human IgG/HRP.
Source text: as §1
The source holds these as a separate data set.

Experiment [6] deals with T2, CD25 on cells (SU-DHL-1 target cells; …). In words: cell-based or functional assay. The source holds these as a separate data set.
Experiment [7] has as its target T1, CD25 protein (Sino Biological, …). In words: ELISA; CD25 protein coated in a dilution series, antibody at one fixed concentration, anti-human IgG/HRP.
Source text: as §1
The source holds these as a separate data set.

Read-outs that look alike come from different tables or passages of the source.

B1: CD25Q11-CA36-IgG1 (antibody, V domains shown)
VH: QVQLVQSGAEVKQPGSSVKVSCKTSGGTFGSSAINWVRQAPGQGLEWMGRIIPIFGVSNFAQKFQGRVTITADKSTNTAYMELSSLRSEDTAVYYCARDGSGYDSNYWYFDLWGRGTLVTVSS
VL: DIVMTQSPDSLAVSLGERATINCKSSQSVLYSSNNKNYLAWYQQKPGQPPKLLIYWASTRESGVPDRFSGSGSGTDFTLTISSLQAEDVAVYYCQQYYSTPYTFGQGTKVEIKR
notes: IgG1 expressed in HEK293
As to B1, in experiment [1], the Kd (as a rule, the constant that tells how readily two partners part at equilibrium) was 1610 pM; the koff (commonly the first-order rate constant of dissociation) is 9.66e-05 s⁻¹; the kon – broadly, the rate constant with which the complex forms – was found to be 60200 M⁻¹ s⁻¹. In addition, in experiment [2], a half-maximal response (EC50) required 2.41 ng/mL.

B2: CD25Q11-BA422-IgG1 (antibody, V domains shown)
VH: QVQLVQSGAEVKKPGSSVKVSCKASGGTFSSSAISWVRQAPGQGLDWMGRIIPLLNIADYAQKFQGRVTFTADKSTNTAYMELSSLRSEDTAVYYCARDGSGYDSNYWYFDLWGRGTLVTVSS
VL: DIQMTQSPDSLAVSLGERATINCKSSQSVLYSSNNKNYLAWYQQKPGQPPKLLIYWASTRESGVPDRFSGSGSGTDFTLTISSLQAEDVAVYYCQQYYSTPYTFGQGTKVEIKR
notes: IgG1 expressed in HEK293
As to B2, the “EC50 of simulated killing activity (Jurkat effector reporter cells, SU-DHL-1 target cells, luminescence)” value (“EC50 of simulated killing activity” for short) in experiment [3] is 836 ng/mL. The “% PSTAT5 in CD3 positive T cells of PBMC after IL2, with 10 µg/mL antibody” value in experiment [4] was determined as 18.1%. In addition, the EC50 (commonly the midpoint of the concentration-response curve) in experiment [5] amounted to 1.3 ng/mL.

B3: CD25Q11-BA406-IgG1 (antibody, V domains shown)
VH: EVQLVQSGAEVKKPGESLKISCKGSGYSFTNYWIAWVRQMPGKGLEWMGIIYPGDSVTRYSPSFQGQVTISADKSINTAYLQWSSLRASDTAMYYCARGPYYFEYWGQGTLVTVSS
VL: DIVMTQSPSTLSASVGDRVTITCRASQSISSFLAWYQQKPGRAPELLIYKASTLESRVPSRFSGSGSGTEFTLTISSLQPEDFATYYCQQYKSFSWTVGQGTKVEIKR
notes: IgG1 expressed in HEK293
For the molecule B3, a half-maximal effect in experiment [2] (EC50) was put at 0.651 ng/mL.

B4: CD25Q11-BA410-IgG1 (antibody, V domains shown)
VH: QVQLQQWGAGLLKPSETLSLTCAVYGGSFSGHYWSWIRQSPGKGLEWIGEIDHSGNAIYNPSLKSRVTISIDTSKNQFSLKLSSVTAADTAVYYCARGEAFDLWGQGTMVTVSS
VL: not shown
notes: IgG1 expressed in HEK293
For B4, the “EC50 of simulated killing activity” value in experiment [3] was 215 ng/mL. Also, in experiment [4], the “% PSTAT5 in CD3 positive T cells of PBMC after IL2, with 10 µg/mL antibody” value came to 16.8%. In experiment [1], the dissociation constant (Kd) came out at 4810 pM, the koff turned out to be 0.00674 s⁻¹ and the kon was found to be 1.4e+06 M⁻¹ s⁻¹. The same molecule gave an EC50 in experiment [2] of 16.8 ng/mL.

B5: CD25Q14-BA443-IgG1 (antibody, V domains shown)
VH: EVQLVQSGAEVKKPGESLKISCKGSGYSFSNYWIGWVRQMPGKGLEWMGIISPGDSTTKYSPSFQGQVTFSADKSTSTAYLQWSSLQASDTAMYYCVRGPYYLDYWGQGTLVTVSS
VL: DIQMTQSPSTLSASVGDRVTITCRASQSVSGYLAWYQQKPGKAPKLLIYKTSSLESGVPSRFSGSGSGTDFTLTISSLQAEDVAVYYCQQYYSTPWTFGQGTKVEIKR
notes: IgG1 expressed in HEK293
Take B5: the “EC50 of simulated killing activity” value in experiment [6] is 360 ng/mL. Besides, in experiment [1], the Kd worked out at 1480 pM, the off-rate (koff) came to 0.000201 s⁻¹ and the kon stood at 136000 M⁻¹ s⁻¹. In experiment [5], this molecule had an EC50 of 1.06 ng/mL.

B6: CD25Q11-BA428-IgG1 (antibody, V domains shown)
VH: QVQLVQSGAEVKKPGESLKISCKGSGYSFTNYWIVWVRQMPGKGLEWMGIISPGDSTTRYSPSFQGQVTFSADKSISTAYLQWSSLKASDTAMYYCAIGPYYLEYWGQGTLVTVSS
VL: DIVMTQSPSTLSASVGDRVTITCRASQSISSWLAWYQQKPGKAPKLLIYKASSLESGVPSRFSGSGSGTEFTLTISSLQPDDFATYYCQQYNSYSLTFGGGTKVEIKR
notes: IgG1 expressed in HEK293
In the case of B6, the “EC50 of simulated killing activity” value in experiment [3] is 217 ng/mL. For the same molecule, in experiment [1], binding was put at a Kd of 379 pM, the koff was found to be 0.00021 s⁻¹ and the kon turned out to be 555000 M⁻¹ s⁻¹. In addition, a half-maximal response in experiment [5] (EC50) required 0.597 ng/mL.

B7: CD25Q14-BA458-IgG1 (antibody, V domains shown)
VH: EVQLVQSGAEVKKPGESLKISCKGSGYSFSNYWIGWVRQMPGKGLEWMGIISPGDSTTKYSPSFQGQVTFSADKSTSTAYLQWSSLQASDTAMYYCVRGPYYLDYWGQGTLVTVSS
VL: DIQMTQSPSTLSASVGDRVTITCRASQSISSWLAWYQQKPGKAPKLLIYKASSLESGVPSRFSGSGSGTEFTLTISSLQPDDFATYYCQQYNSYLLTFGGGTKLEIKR
notes: IgG1 expressed in HEK293
For B7, the “EC50 of simulated killing activity” value in experiment [6] was 266 ng/mL. In addition, in experiment [1], the Kd was found to be 596 pM, the off-rate (koff) is 0.000216 s⁻¹ and the kon amounted to 362000 M⁻¹ s⁻¹. This molecule also yielded a concentration for a half-maximal effect (EC50) in experiment [5] of 1 ng/mL.

B8: CD25Q14-CA705-IgG1 (antibody, V domains shown)
VH: EVQLVQSGAEVKKPGESLKISCKGSGYSFANYWIVWVRQMPGKGLEWMGIIYPDDSETRYSPSFQGQVTFSADKSISTAYLQWSSLKASDTAMYYCTRGPYYSDYWGQGTLVTVSS
VL: DIQMTQSPSTLSASVGDRVSITCRASQSIGSWLAWYQQKPGKAPKLLIFEASNLESGVPSRFSGSGSGTEFTLTISNLQPDDFATYYCQQYNSYSLTFGGGTKVEIKR
notes: IgG1 expressed in HEK293
In the case of B8, the “EC50 of simulated killing activity” value in experiment [3] is 409 ng/mL. Besides, in experiment [1], the Kd is 1970 pM, the off-rate (koff) was found to be 0.000752 s⁻¹ and the kon was determined as 381000 M⁻¹ s⁻¹. This molecule had an EC50 in experiment [2] of 4.77 ng/mL.

B9: CD25Q3-BA125-IgG1 (antibody, V domains shown)
VH: EVQLVQSGAEVKKPGESLKISCKGSGYSFANYWIVWVRQMPGKGLEWMGIIYPDDSETRYSPSFQGQVTFSADKSISTAYLQWSSLKASDTAMYYCTRGPYYSDYWGQGTLVTVSS
VL: DIQMTQSPSTLSASVGDRVTITCRASQIISGYLAWYQQKPGKAPKLLIYKASSLESGVPSRFSGSGSGAEFTLTISSLQPDDFATYYCQQYNSYTWTFGQGTKVEIKR
notes: IgG1; also called CD25Q2-BA125
Consider B9, for which the “EC50 of simulated killing activity” value in experiment [3] is 251 ng/mL. In experiment [1], this molecule returned a Kd of 431 pM, a koff of 0.000301 s⁻¹ and an on-rate constant (kon) of 699000 M⁻¹ s⁻¹. Moreover, in experiment [7], the midpoint of the response, the EC50, lay at 1.61 ng/mL.

B10: CD25Q14-BA448-IgG1 (antibody, V domains shown)
VH: EVQLVQSGAEVKKPGESLKISCKGSGYNFANYWIVWVRQMPGKGLEWMGITYPDDSETRYSPSFQGQVTFSADKSISTAYLQWSSLKASDTAMYYCTRGPYYSDYWGQGTLVTVSS
VL: DIQMTQSPSTLSASVGDRVTITCRASQSISSWLAWYQQKPGKAPKLLIYKASSLESGVPSRFSGSGSGTEFTLTISSLQPDDFATYYCQQYDRFSWTFGQGTKVEIKR
notes: IgG1; The VH is copied as printed. 'YVVGQG' near its end may be a misprint of 'YWGQG'
As for B10, in experiment [1], the dissociation constant (Kd) was found to be 904 pM, the off-rate (koff) was 0.000531 s⁻¹ and the on-rate (kon) worked out at 587000 M⁻¹ s⁻¹. In experiment [5], this molecule displayed an EC50 of 2.68 ng/mL.

B11: CD25Q11-BA415-IgG1 (antibody, V domains shown)
VH: QVQLVQSGTEVKKPGESLKISCEGVGYSFTTYWIGWVRQMPGKGLEWMGIIYPGDSITRYSPSFQGQVTISADKSINTAYLQWSSLMASDTAMYYCVRGPHWGDYWGQGTLVTVSS
VL: DIQMTQSPSTLSASVGDRVTITCRASQSISTWLAWYQQKPGKAPKLLIYKASSLESGVPSRFSGSGSGTEFTLTISSLQPDDFAAYYCQQYSSYSWTFGQGTKVEIKR
notes: IgG1 expressed in HEK293
For B11, in experiment [6], the “EC50 of simulated killing activity” value was 233 ng/mL. In experiment [1], this molecule had a Kd of 614 pM, a dissociation rate constant (koff) of 0.000199 s⁻¹ and a kon of 323000 M⁻¹ s⁻¹. In experiment [2], this molecule yielded an EC50 of 0.941 ng/mL.

B12: CD25Q11-BA402-IgG1 (antibody, V domains shown)
VH: QVQLVQSGAEVKKPGESLKISCKGSGYSFSNYWIAWVRQMPGKGLEWMGIIYPGDSATRYSPSFQGQVTISADKSINTAYLQWSSLRASDTAMYYCARGPYYFEYWGQGTLVTVSS
VL: DIVMTQSPSTLSASVGDRVTLTCRASQSISSYLAWYQQKPGKAPKLLIYKASTLESGVPSRFSGSGSGTEFTLTISSLQPDDFATYYCQHYNSYSVTFGGGTKVEIKR
notes: IgG1 expressed in HEK293
Turning to B12, the “EC50 of simulated killing activity” value in experiment [3] was 443 ng/mL. In experiment [1], this molecule showed an equilibrium dissociation constant (Kd) of 607 pM, a koff of 0.000212 s⁻¹ and a kon of 350000 M⁻¹ s⁻¹. This molecule showed an EC50 in experiment [7] of 0.674 ng/mL.

The values above are taken from patent US20220195055A1 (SHANDONG BOAN BIOTECHNOLOGY, published 2022).
